Experimental data published in publication doi:10.1101/2022.09.15.508177.

Tests used:
[1] = biological target: CTCF (CCCTC-binding factor), full-length, wild type, C-terminal MBP-Flag tag (human) (UniProt P49711)
[2] = biological target: CTCF truncation mutant that only includes the 11 Zn-fingers (human); assay: single-molecule co-localisation on DNA curtains
[3] = biological target: CTCF(Y226A/F228A) (human) (UniProt P49711); assay: single-molecule co-localisation on DNA curtains
[4] = biological target: CTCF (CCCTC-binding factor), full-length, wild type, C-terminal MBP-Flag tag (human) (UniProt P49711); assay: single-molecule co-localisation on DNA curtains

CTCF truncation mutant that only includes the 11 Zn-fingers (human), sequence (P49711 266-577, stated change not applied): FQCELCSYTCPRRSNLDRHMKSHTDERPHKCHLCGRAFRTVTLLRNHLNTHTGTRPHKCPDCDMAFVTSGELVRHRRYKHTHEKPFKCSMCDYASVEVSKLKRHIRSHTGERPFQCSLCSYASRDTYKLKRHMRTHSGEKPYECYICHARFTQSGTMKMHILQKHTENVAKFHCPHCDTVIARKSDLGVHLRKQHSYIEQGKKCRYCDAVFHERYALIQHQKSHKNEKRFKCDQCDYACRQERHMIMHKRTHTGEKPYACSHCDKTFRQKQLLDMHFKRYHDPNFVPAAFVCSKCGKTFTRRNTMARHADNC

| cohesin velocity after non-permissive (CTCF^N) collision [1] [bp s^-1] | cohesin velocity after permissive (CTCF^C) collision [1] [bp s^-1] | percent co-localised [2] [%] | percent co-localised [3] [%] | percent of CTCF^N foci that retained cohesin [4] [%] | Substance |
| --- | --- | --- | --- | --- | --- |
| 0.2 | 1.42 | < 50 | < 50 |  | cohesin-NIPBL^C (SMC1, SMC3, RAD21, STAG1 with NIPBL^C), wild type (from UniProt Q14683;Q9UQE7;O60216;Q8WVM7;Q6KC79) (complex) |
|  |  |  |  | 47 | cohesin-NIPBL^C with STAG1(W337A/F347A) (from UniProt Q14683;Q9UQE7;O60216;Q8WVM7;Q6KC79) (complex) |
